Target: SARS-CoV-2 spike S1 domain (SARS-CoV-2, ancestral (Wuhan-Hu-1/WA1 …, UniProt P0DTC2))
Assay: ELISA

B1: ADPT02606 (antibody, V domains shown)
VH: EVQLVESGGGLVKPGGSLRLSCAASGFTFSSYSMNWVRQAPGKGLEWVSSITSSSGYMYYADSVKGRFTISRDNAKNSLYLQLNSLRAEDTAVYYCAKDSAFDLWEVRSYYYVMDVWGQGTTVTVSS
VL: not shown
B1: binds.
